In patent publication US20220267412A1 one finds amount of purified protein to fully inhibit PPE (typically 160 nM, 200 uL, +40 mM 2-ME) data, which are given here for one substance.

The assay addresses porcine pancreatic elastase (porcine) (UniProt P00772). Kind of assay: cell-based or functional assay.

Sequence of porcine pancreatic elastase (porcine) (P00772 27-266): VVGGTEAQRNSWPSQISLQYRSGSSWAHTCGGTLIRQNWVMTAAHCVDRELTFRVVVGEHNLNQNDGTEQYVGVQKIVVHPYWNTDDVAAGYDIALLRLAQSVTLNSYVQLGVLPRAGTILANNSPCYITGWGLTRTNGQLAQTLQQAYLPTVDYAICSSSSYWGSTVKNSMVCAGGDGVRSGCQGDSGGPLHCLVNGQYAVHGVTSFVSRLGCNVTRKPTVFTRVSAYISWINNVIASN

“human serpin B1 C344S variant (from UniProt P30740 1-379)” gave an amount of purified protein to fully inhibit PPE (typically 160 nM, 200 uL, +40 mM 2-ME) of 13 µg.
